Assay results published in the supplement of paper PMC7125110.
± gives the standard error. Fewer inactive variants are shown than the library holds.

B1: glmS ribozyme (parent)
chain: AUAAAAGCGCCAGAACUACAGAAAUGUAGUUGACGAGGAGGAGGUUUAUCGAAUUUUCGGCGGAUGCCUCCAAA

Experiments:
Conditions in all cases: with glucosamine-6-phosphate
glucosamine-6-phosphate [1] = variants of: B1; assay: self-cleavage kobs at 640 uM GlcN6P; higher = faster cleavage; RNA array
Method in brief: (§1)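 Glucosamine-6-phosphate (40 μM to 10 mM) in HEPES/KCl/Mg(OAc)2 buffer was flowed over sequenced MiSeq chips, and tiles were imaged over ~14 h. Barcoded ribozyme variants there had been transcribed in situ by E. coli RNA polymerase and were tracked through a hybridised Cy3 probe at 37 °C. One- or two-exponential decay fits to per-tile medians, normalised to baseline and to non-cleaving reference variants, gave kobs. kcat and KM came from weighted Michaelis–Menten fits across concentrations.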

glucosamine-6-phosphate [2] = variants of: B1; assay: self-cleavage kobs at 2500 uM GlcN6P; higher = faster cleavage; RNA array
Method in brief: as §1

glucosamine-6-phosphate [3] = variants of: B1; assay: self-cleavage kobs at 10000 uM GlcN6P; higher = faster cleavage; RNA array
Method in brief: as §1

Variant	self-cleavage kobs at 640 uM GlcN6P (glucosamine-6-phosphate [1]) [s⁻¹]	self-cleavage kobs at 2500 uM GlcN6P (glucosamine-6-phosphate [2]) [s⁻¹]	self-cleavage kobs at 10000 uM GlcN6P (glucosamine-6-phosphate [3]) [s⁻¹]
AUAAAAGAGACAGAACUACAGAAAUGUAGUUGAAGAGGAGGAGGUUUAUCGAAUUUUCGGCGGAUGCCUCCAAA [C8A C10A C34A]	< 1e-05	–	–
AUAAAAGCGUCAGAACUACAGAAAUGUAGUUGGCGAGGAUGAGGUUUAUGGAAUUUUCGGCGGAUGCCUCCAAA [C10U A33G G40U C50G]	< 1e-05	–	–
AUAAAAGCGCCAGAACUACAGAAAUGUAGUUGACAAGGAGGAGGUUUAUGGAAUUUUCGGCGGAUGCUUGCAAA [G35A C50G C68U C70G]	0.000738 ± 0.00024	0.000111 ± 4.4e-05	–
AUAAAAGCGCGAGAACUACAGAAAUGUAGUUGACGAGGAGGUGGUUUAUCUAAUUUUCGGCCGAUGCCUCCAAA [C11G A42U G51U G62C]	< 1e-05	< 1e-05	–
AUAAAAGCGCCAGAACUACAGAAAUGUAGUUGACGAGGAGGAGGUUUAUCGAAUUUUCUGCAGAAGCCUCCAAA [G59U G62A U65A]	< 1e-05	< 1e-05	–
AUAAACGCCCCAGAACUACAGAAAUGUAGUUGACGAGGAGUAGGUUUAUCGAAUUUUCGGCGGAUGCCUCCAAA [A6C G9C G41U]	< 1e-05	< 1e-05	–
AUAAAAGCGCCAGAACUACAGAAAUGUAGUUGACGGGGCGGAGGUUUAUCGAAUUUUCGGCGGUUGCCUCGAAA [A36G A39C A64U C71G]	< 1e-05	< 1e-05	–
AUAAAAGCGCCAGAACUACAGAAAUGUAGUUGACGAGUAGGAGGUUGAUCGAAUUUUCGGCGGAUGCUUCCAAA [G38U U47G C68U]	0.000119 ± 4e-05	–	–
AUAAAAGCGCCAGAACUACAGAAAUGUAGUGGACGAGGAGGAGGUUUAUCGAAUUUUCGGCGGAAGCCUCCAAA [U31G U65A]	0.000295 ± 0.00011	–	0.00166 ± 0.00049
AUAAAAGCGCCAGAUCUACAGAAAUGUAGUUGACGAGGAGGAGGUUUAUCGGAUUUUUGGCGGAUGCCUCCAAA [A15U A52G C58U]	< 1e-05	–	–
AUAAAAGCUCCCGAACUACAGAAAUGUAGUUGGCGAGGAGGAGGUUUAUCGAAUUUUCGGCGGAUGCCUCCAAA [G9U A12C A33G]	< 1e-05	< 1e-05	–
AUAAAGGCGCCAGAACUACAGAAAUGUAGUUGACGAGGAGGAGGUUUAUCGAAUUUUCGGCUGAUGCCUCGAAA [A6G G62U C71G]	< 1e-05	–	–
AUAAAAGCGCCAGUACUACAGAAAUGUAGUUGACGAGGAGGAGGUAUAUCGAAUUUUCGGCGGAUGCUUCCAAA [A14U U46A C68U]	4.63e-05 ± 1.7e-05	0.000119 ± 2e-05	–
AUAAAAGCGCCAGAACUACAGAAAUGUAGAUGACGAGGAGGAGGUUUAUCGAAUUUUCGGCGGUUGCCUCCAAA [U30A A64U]	< 1e-05	–	–
AUAAAAGCGCCAGGAGUACAGAAAUGUAGUUGACGAGGUGGAGGUUUAUCGCAUUUUCGGCGGAUGCCUCCAAA [A14G C16G A39U A52C]	< 1e-05	–	–
AUAAAAGCGCCAGAACUACAGAAAUGUAGUUAACGAUGAGGAGGUUUCUCGAAUUUUCGGCGGAUCCCUCCAAA [G32A G37U A48C G66C]	< 1e-05	–	–
AUAAAAGCGCCAGGACUACAGAAAUGUAGUUGACGAGGAGUAGGUUUAUCGAAUUUUCGGCGGAUGCCUCUAAA [A14G G41U C71U]	0.000155 ± 4.4e-05	0.00102 ± 0.00029	–
AUAAAAGCGCCAGAAGUACAGAAAUGUAGUUGACGAGGAGGAGGUUUAUCGAAAUUUCGGCGGAGGCCUCCAAA [C16G U54A U65G]	0.000305 ± 0.00011	0.000707 ± 0.00023	–
AUAAAAGCGUCAGGACUACAGAAAUGUAGUUGACGAGGAGGAGGUUUAUCGAAUUUUCGGCGGAUGCCACCAAA [C10U A14G U69A]	4.59e-05 ± 2.2e-05	4.32e-05 ± 1.9e-05	–
AUAAAAGCGCCAGAACUACAGAAAUGUAGUAGACGAGGAGGAGGUUUAUCGAAUUUUCGGCGGAUUCCUUCAAA [U31A G66U C70U]	0.00031 ± 6.9e-05	0.000329 ± 6.7e-05	–
AUAAAAGCGCCAGAACUACAGAAAUGUAGUUGGCGAGGCGAAGGUUUAUAGAAUUUUCGGCGGAUGCCUCCAAA [A33G A39C G41A C50A]	< 1e-05	–	–
AUAAAAGCGCCAGAACUACAGAAAUGUAGUUGACUAGGAGGAGCUUUAUCGAAUUUUCGGCGGAUUCCUCCAAA [G35U G44C G66U]	< 1e-05	–	–
AUAAAAGCGCCAGAACUACAGAAAUGUAGUUGACGCGGAGGAGGUUUAUCUACUUUUCGGCGGAUGCCUCCAAA [A36C G51U A53C]	< 1e-05	< 1e-05	< 1e-05
